{"source": "patent US6831059", "about": "(ALLERGAN SALES, dated 2004)", "molecules": {"B1": {"name": "native TeTx L chain (enzyme)", "chain": "PITINNFRYSDPVNNDTIIMMEPPYCKGLDIYYKAFKITDRIWIVPERYEFGTKPEDFNPPSSLIEGASEYYDPNYLRTDSDKDRFLQTMVKLFNRIKNNVAGEALLDKIINAIPYLGNSYSLLDKFDTNSNSVSFNLLEQDPSGATTKSAMLTNLIIFGPGPVLNKNEVRGIVLRVDNKNYFPCRDGFGSIMQMAFCPEYVPTFDNVIENITSLTIGKSKYFQDPALLLMHELIHVLHGLYGMQVSSHEIIPSKQEIYMQHTYPISAEELFTFGGQDANLISIDIKNDLYEKTLNDYKAIANKLSQVTSCNDPNIDIDSYKQIYQQKYQFDKDSNGQYIVNEDKFQILYNSIMYGFTEIELGKKFNIKTRLSYFSMNHDPVKIPNLLDDTIYNDTEGFNIESKDLKSEYKGQNMRVNTNAFRNVDGSGLVSKLIGLCKKIIPPTNIRENLYNRTA"}}, "key": {"native TeTx H chain [1]": {"target": "native TeTx H chain (UniProt P04958)"}, "native BoNT/A H chain": {"target": "native BoNT/A H chain (UniProt P0DPI0)", "sequence (P0DPI0 449-1296 limits assumed)": "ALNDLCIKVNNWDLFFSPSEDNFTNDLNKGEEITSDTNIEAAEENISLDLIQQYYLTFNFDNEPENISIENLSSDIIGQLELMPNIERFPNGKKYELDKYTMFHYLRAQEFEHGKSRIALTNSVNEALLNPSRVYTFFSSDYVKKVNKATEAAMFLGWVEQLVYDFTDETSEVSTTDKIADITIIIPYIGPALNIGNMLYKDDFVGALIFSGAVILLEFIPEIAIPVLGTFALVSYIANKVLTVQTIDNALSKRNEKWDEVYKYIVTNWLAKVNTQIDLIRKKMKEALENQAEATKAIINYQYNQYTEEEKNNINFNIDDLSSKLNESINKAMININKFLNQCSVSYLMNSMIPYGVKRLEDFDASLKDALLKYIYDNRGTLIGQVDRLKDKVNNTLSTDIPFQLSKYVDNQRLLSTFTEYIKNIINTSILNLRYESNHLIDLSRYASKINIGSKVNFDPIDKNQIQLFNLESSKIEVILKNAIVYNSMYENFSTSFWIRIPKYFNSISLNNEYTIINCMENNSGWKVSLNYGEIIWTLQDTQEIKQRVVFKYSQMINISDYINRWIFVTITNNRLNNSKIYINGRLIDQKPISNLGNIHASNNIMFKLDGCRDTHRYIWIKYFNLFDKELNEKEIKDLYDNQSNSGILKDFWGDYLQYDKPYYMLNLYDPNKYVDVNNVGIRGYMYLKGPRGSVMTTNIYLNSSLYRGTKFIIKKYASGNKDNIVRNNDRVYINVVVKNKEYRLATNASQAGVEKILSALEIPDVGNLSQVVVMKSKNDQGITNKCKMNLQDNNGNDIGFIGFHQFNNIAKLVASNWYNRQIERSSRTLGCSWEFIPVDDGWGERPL"}, "native TeTx H chain [2]": {"target": "T1, native TeTx H chain (UniProt P04958 458-1315)", "T1 sequence": "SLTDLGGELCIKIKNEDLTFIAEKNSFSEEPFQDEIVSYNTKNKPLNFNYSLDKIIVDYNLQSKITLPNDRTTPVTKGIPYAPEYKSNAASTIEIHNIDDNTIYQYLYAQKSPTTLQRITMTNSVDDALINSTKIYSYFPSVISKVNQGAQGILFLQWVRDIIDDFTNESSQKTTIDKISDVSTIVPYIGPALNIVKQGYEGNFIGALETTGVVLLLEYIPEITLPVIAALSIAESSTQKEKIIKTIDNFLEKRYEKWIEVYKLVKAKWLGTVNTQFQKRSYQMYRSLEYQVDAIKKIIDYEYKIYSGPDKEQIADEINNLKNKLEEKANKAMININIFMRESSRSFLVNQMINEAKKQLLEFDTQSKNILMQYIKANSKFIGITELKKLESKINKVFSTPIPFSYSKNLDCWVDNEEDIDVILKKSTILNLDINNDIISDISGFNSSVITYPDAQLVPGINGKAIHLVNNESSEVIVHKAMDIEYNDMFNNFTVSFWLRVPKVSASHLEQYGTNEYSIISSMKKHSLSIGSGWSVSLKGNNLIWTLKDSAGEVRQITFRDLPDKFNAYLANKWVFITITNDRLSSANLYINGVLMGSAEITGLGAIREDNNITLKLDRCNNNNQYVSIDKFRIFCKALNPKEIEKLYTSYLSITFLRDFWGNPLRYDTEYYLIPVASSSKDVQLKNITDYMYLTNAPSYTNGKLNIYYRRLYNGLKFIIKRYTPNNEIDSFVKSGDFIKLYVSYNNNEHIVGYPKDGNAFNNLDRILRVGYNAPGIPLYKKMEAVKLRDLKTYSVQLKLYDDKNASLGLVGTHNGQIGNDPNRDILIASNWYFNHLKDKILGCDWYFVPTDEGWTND", "assay": "reassociation by dialysis, non-reducing SDS-PAGE, silver staining"}}, "data": [{"molecule": "recombinant wild-type TeTx L chain (from UniProt P04958 1-457) (enzyme)", "values": [{"measurement": "relative amount of the dichain species", "setting": "native TeTx H chain [1]", "result": 55.1, "unit": "%"}]}, {"molecule": "native BoNT/A L chain (from UniProt P0DPI0 2-448) (enzyme)", "values": [{"measurement": "proportion of L chain reassociated with the H chain", "setting": "native BoNT/A H chain", "result": "> 90", "unit": "%"}]}, {"molecule": "B1", "values": [{"measurement": "binding result", "setting": "native TeTx H chain [2]", "result": "binds"}]}]}
